{"source": "patent US20260125457A1", "about": "(Janssen / Centocor, published 2026)", "molecules": {"B1": {"name": "C3CRB75 CALRmut x CD3 bispecific antibody (bispecific antibody, human IgG1, kappa, L234A L235A)", "heavy 1": "EVQLLESGGGLVQPGGSLRLSCAVSGIDLSNNAISWVRQAPGKGLEYVGVIGNTGDTYYADSAKGRFTISRDSSKTTLYLQMNSLRAEDTAVYFCVRGPPSYSSSVKNIWGQGTLVTVSSASTKGPSVFPLAPSSKSTSGGTAALGCLVKDYFPEPVTVSWNSGALTSGVHTFPAVLQSSGLYSLSSVVTVPSSSLGTQTYICNVNHKPSNTKVDKKVEPKSCDGGGGSGGGGSDIQMTQSPSSLSASVGDRVTITCRARQSIGTAIHWYQQKPGCAPKLLIKYASESISGVPSRFSGSGSGTDFTLTISSLQPEDFATYYCQQSGSWPYTFGQGTKLEIKGGGSGGSGGCPPCGGSGGEVQLVESGGGLVKPGGSLRLSCAASGFTFSRYNMNWVRQAPGKGLEWVSSISTSSNYIYYADSVKGRFTFSRDNAKNSLDLQMSGLRAEDTAIYYCTRGWGPFDYWGCGTLVTVSSEPKSSDKTHTCPPCPAPEAAGGPSVFLFPPKPKDTLMISRTPEVTCVVVSVSHEDPEVKFNWYVDGVEVHNAKTKPREEQYNSTYRVVSVLTVLHQDWLNGKEYKCKVSNKALPAPIEKTISKAKGQPREPQVYTLPPSREEMTKNQVSLWCLVKGFYPSDIAVEWESNGQPENNYKTTPPVLDSDGSFFLYSKLTVDKSRWQQGNVFSCSVMHEALHNHYTQKSLSLSPGK", "heavy 2": "EVQLLESGGGLVQPGGSLRLSCAVSGIDLSNNAISWVRQAPGKGLEYVGVIGNTGDTYYADSAKGRFTISRDSSKTTLYLQMNSLRAEDTAVYFCVRGPPSYSSSVKNIWGQGTLVTVSSASTKGPSVFPLAPSSKSTSGGTAALGCLVKDYFPEPVTVSWNSGALTSGVHTFPAVLQSSGLYSLSSVVTVPSSSLGTQTYICNVNHKPSNTKVDKKVEPKSCDKTHTCPPCPAPEAAGGPSVFLFPPKPKDTLMISRTPEVTCVVVSVSHEDPEVKFNWYVDGVEVHNAKTKPREEQYNSTYRVVSVLTVLHQDWLNGKEYKCKVSNKALPAPIEKTISKAKGQPREPQVYTLPPSREEMTKNQVSLSCAVKGFYPSDIAVEWESNGQPENNYKTTPPVLDSDGSFFLVSKLTVDKSRWQQGNVFSCSVMHEALHNRFTQKSLSLSPGK", "light": "DIQMTQSPSSVSASVGDRVTITCQSSQSVYNNNWLSWLQQKPGKAPKRLIYDASKLESGVPSRFSGSGSGTDFTLTISSVQPEDAATYYCAGGFTGNVYTFGGGTKVEIKRTVAAPSVFIFPPSDEQLKSGTASVVCLLNNFYPREAKVQWKVDNALQSGNSQESVTEQDSKDSTYSLSSTLTLSKADYEKHKVYACEVTHQGLSSPVTKSFNRGEC", "notes": "Chain A heavy: CALRB421 Fab heavy part, CD3 spFv, Fc; Chain B heavy: CALRB421; one light chain on each"}, "B2": {"name": "CALRB1508 CALRmut x CD3 bispecific antibody (bispecific antibody, human IgG1, kappa, L234A L235A)", "scFv": "DIQMTQSPSSLSASVGDRVTITCRARQSIGTAIHWYQQKPGCAPKLLIKYASESISGVPSRFSGSGSGTDFTLTISSLQPEDFATYYCQQSGSWPYTFGQGTKLEIKGGGSGGSGGCPPCGGSGGEVQLVESGGGLVKPGGSLRLSCAASGFTFSRYNMNWVRQAPGKGLEWVSSISTSSNYIYYADSVKGRFTFSRDNAKNSLDLQMSGLRAEDTAIYYCTRGWGPFDYWGCGTLVTVSSEPKSSDKTHTCPPCPAPEAAGGPSVFLFPPKPKDTLMISRTPEVTCVVVSVSHEDPEVKFNWYVDGVEVHNAKTKPREEQYNSTYRVVSVLTVLHQDWLNGKEYKCKVSNKALPAPIEKTISKAKGQPREPQVYTLPPSREEMTKNQVSLWCLVKGFYPSDIAVEWESNGQPENNYKTTPPVLDSDGSFFLYSKLTVDKSRWQQGNVFSCSVMHEALHNHYTQKSLSLSPGK", "heavy": "QVQLVQSGAEVKKPGASVKVSCKASGFSLSSYAMSWVRQAPGQGLEWMGVIDSGGTTYYAQKFQGRVTMTRDTSTSTVYMELSSLRSEDTAVYYCARESYAGYDYYGHPIPYGMEPWGQGTLVTVSSASTKGPSVFPLAPSSKSTSGGTAALGCLVKDYFPEPVTVSWNSGALTSGVHTFPAVLQSSGLYSLSSVVTVPSSSLGTQTYICNVNHKPSNTKVDKKVEPKSCDKTHTCPPCPAPEAAGGPSVFLFPPKPKDTLMISRTPEVTCVVVSVSHEDPEVKFNWYVDGVEVHNAKTKPREEQYNSTYRVVSVLTVLHQDWLNGKEYKCKVSNKALPAPIEKTISKAKGQPREPQVYTLPPSREEMTKNQVSLSCAVKGFYPSDIAVEWESNGQPENNYKTTPPVLDSDGSFFLVSKLTVDKSRWQQGNVFSCSVMHEALHNRFTQKSLSLSPGK", "light": "DIQMTQSPSTLSASVGDRVTITCQASQSLYNNKNLAWYQQKPGKAPKLLIYYASALASGVPSRFSGSGSGTEFTLTISSLQPDDFATYYCQGEFNCNSADCNSFGGGTKVEIKRTVAAPSVFIFPPSDEQLKSGTASVVCLLNNFYPREAKVQWKVDNALQSGNSQESVTEQDSKDSTYSLSSTLTLSKADYEKHKVYACEVTHQGLSSPVTKSFNRGEC", "notes": "Chain A: CD3 spFv-Fc; Chain B: CALRB1114 Fab arm"}}, "key": {"[1]": {"target": "HIS-CALRdel52 (produced in E. coli)", "assay": "QC monoclonal phage ELISA, helper phage control"}, "[2]": {"target": "T1, CD3 on primary human pan T cells (human, UniProt P07766 23-207)", "T1 construct": "whole, on cells; also called CD3e; CD3ε", "T1 sequence (P07766 23-207)": "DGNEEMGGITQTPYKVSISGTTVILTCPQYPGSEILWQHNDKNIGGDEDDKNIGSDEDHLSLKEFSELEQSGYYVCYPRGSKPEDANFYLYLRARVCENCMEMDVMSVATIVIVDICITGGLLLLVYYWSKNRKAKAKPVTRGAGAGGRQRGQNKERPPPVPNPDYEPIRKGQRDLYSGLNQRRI", "assay": "flow cytometry on pan CD3 T cells, 1 h at 37 C, AF647 secondary antibody, Geometric Mean", "experimental": "FIG. 22 depicts binding of different CALRmutxCD3 bispecific antibodies to pan CD3 T cells. Flow cytometry was used to evaluate CALRmutxCD3 binding to pan CD3 T cells in vitro, by 1 hour 37° C. incubation, with subsequent incubation with secondary AF647-labeled antibody. Geometric mean fluorescence intensity of AF647 was measured to determine antibody binding.\nFlow cytometry was used to evaluate the CD3 arm binding of CALRmutxCD3 antibodies listed in Table 21 to CD3+ pan T cells from healthy human donor. CALRmutxCD3 were tested after 1 hour 37° C. incubation with pan T cells."}, "[3]": {"target": "T2, wild-type calreticulin (CALRwt) expressed with MPL in engineered cancer cells (UniProt P27797 18-417, limits assumed)", "T2 construct": "whole, on cells; also called OCI-M2 MPL CALRwt", "T2 sequence (looked up)": "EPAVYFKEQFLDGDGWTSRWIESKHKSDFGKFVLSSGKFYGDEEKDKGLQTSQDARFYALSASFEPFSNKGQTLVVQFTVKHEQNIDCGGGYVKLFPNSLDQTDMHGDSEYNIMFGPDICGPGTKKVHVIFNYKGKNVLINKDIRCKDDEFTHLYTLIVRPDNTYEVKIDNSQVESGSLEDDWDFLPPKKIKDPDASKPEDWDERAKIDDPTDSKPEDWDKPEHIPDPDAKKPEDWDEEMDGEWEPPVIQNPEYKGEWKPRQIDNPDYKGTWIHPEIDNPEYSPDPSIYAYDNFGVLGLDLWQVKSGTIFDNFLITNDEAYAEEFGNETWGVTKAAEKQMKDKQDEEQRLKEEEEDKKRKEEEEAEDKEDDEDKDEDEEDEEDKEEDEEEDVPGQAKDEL", "assay": "flow cytometry on ELF-153 MPL CALRwt cells, 1 h at 37 C, AF647 secondary antibody, Geometric Mean", "experimental": "(§1) FIGS. 21A-21F depict binding of different CALRmutxCD3 bispecific antibodies to CALRmut-negative or CALRmut-positive cells. Flow cytometry was used to evaluate CALRmutxCD3 binding to CALRmut-negative and CALRmut-positive cancer cells in vitro. CALRmutxCD3 antibodies were tested on a panel of cell lines, engineered to express MPL and CALRmut, after 1 hour 37° C. incubation, with subsequent incubation with secondary AF647-labeled antibody. Geometric mean fluorescence intensity of AF647 was measured to determine antibody binding."}, "[4]": {"target": "T3, CALRins5 (mutant calreticulin, 5 base pair insertion, Type 2) expressed with MPL on engineered cancer cells (UniProt P27797 18-417)", "T3 construct": "whole, on cells; On the cell surface in complex with MPL; also called OCI-M2 MPL CALRins5", "T3 sequence (looked up)": "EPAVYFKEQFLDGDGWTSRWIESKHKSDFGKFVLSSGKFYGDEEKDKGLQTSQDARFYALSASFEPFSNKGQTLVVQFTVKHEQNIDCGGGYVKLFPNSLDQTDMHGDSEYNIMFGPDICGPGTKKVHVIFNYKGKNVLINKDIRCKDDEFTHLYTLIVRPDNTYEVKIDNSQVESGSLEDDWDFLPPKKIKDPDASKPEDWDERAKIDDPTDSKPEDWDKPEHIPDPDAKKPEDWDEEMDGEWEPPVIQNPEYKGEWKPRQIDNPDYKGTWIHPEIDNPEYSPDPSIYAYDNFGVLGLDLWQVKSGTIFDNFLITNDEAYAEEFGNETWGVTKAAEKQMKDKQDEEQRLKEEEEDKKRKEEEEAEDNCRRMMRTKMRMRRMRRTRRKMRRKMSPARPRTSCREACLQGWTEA", "assay": "flow cytometry on ELF-153 MPL CALRins5 cells, 1 h at 37 C, AF647 secondary antibody, Geometric Mean", "experimental": "as §1"}, "[5]": {"target": "T4, CALRdel52 (mutant calreticulin, 52 base pair deletion, Type 1) expressed with MPL on engineered cancer cells (UniProt P27797 18-417)", "T4 construct": "whole, on cells; On the cell surface in complex with MPL; also called OCI-M2 MPL CALRdel52", "T4 sequence (looked up)": "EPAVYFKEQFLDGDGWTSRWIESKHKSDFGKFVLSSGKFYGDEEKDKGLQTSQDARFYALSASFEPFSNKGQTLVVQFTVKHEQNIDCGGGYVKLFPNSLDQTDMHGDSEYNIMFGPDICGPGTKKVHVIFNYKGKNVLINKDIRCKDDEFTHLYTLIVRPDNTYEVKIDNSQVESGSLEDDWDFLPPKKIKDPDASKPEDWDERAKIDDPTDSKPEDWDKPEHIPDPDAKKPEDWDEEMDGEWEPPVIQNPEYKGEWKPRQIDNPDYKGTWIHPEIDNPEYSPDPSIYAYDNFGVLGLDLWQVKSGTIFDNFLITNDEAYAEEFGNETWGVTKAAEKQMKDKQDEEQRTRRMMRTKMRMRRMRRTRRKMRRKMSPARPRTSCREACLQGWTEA", "assay": "flow cytometry on OCI-M2 MPL CALRdel52 cells, 1 h at 37 C, AF647 secondary antibody, Geometric Mean", "experimental": "as §1"}}}
{"molecule": "M13KO7", "values": [{"measurement": "phage ELISA signal (Coating: CALR)", "setting": "[1]", "result": 0.225}]}
{"molecule": "B1", "values": [{"measurement": "binding result", "setting": "[2]", "result": "binds"}, {"measurement": "binding result", "setting": "[3]", "result": "no binding (tested: 100 nM)"}, {"measurement": "EC50 (read off the curve)", "setting": "[4]", "result": "~0.5", "unit": "nM"}, {"measurement": "EC50 (read off the curve)", "setting": "[5]", "result": "~2", "unit": "nM"}]}
{"molecule": "B2", "values": [{"measurement": "EC50 (read off the curve)", "setting": "[2]", "result": "~3", "unit": "nM"}, {"measurement": "binding result", "setting": "[3]", "result": "no binding (tested: 100 nM)"}, {"measurement": "EC50 (read off the curve)", "setting": "[4]", "result": "~3", "unit": "nM"}, {"measurement": "EC50 (read off the curve)", "setting": "[5]", "result": "~4", "unit": "nM"}]}
